What follows are sequences tested on Saccharomyces cerevisiae (assay: transcriptional activation domain activity (GFP:mCherry ratio, weighted mean of sorted bins, harmonized to initial dataset scale) (arbitrary fluorescence ratio units); higher = stronger transcriptional activation). Conditions: beta-estradiol 1 µM; induction time 4 h.
How it was run: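 Values are activation activity, found as the read-weighted mean of bin median fluorescence, averaged across barcodes and then mapped linearly onto the initial dataset scale. Barcoded protein tiles fused to an estradiol-inducible synthetic transcription factor were integrated at the URA3 locus of GFP-reporter yeast diploids. Cells were induced for 4 hours at 30 °C with 1 uM beta-estradiol in SC, sorted into 8 bins by GFP:mCherry ratio, and barcode-sequenced, with tiles under 50 reads discarded.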

Going from “ETYLFLQDQDESADSHHHDELGSEITLADNKFSYLPPTLEELMEEQDCNNGRS” to “MGWGAFWRWLVGCSLVLYVFYPLLSYLRCFILVFRFVYIYLPLTDCFLLFISK”, the “transcriptional activation domain activity” value falls from 84700 to 53300.

First: MKSHDLFFFLLLLFQLTSFSSIQLFPAVRVILHVLSHLFMVLHAYCCLPPFIF
Second: DAYLLWGPGFIPTVCHIHDFPLLLPVAIFLVYINLSSCHLDPLISFLFLPLFG
The “transcriptional activation domain activity” value of the first is lower: 64400 for the first, 66500 for the second.

First: DIPGLAPTYLDNQAFLMADTVDIPGDYNLFFDNFDISNFFLPATVYDSELPVS
Second: VSFRLLVYALVSHVIFGIVLLIDCFYAFPGWHCSLLAFLINFNILFSASIFFC
The “transcriptional activation domain activity” value of the first is higher: 137000 for the first, 55200 for the second.

Going from “SVSRLHAKIEYEEEEERFVLVVVGRNGAWVDGVWSGAGSRVPLCERSQIQIAS” to “VAVAREPFQEGADASGKLYNKDSLDDEDSRKYVVILNAFLQMLAALDELVLVL”, the “transcriptional activation domain activity” value rises from 45800 to 76700.

First: MDSQDAGRVSSQGQAVKEKQRSRTGCRTCKSRKVKCDETRGGCRNCERLNLPC
Second: SLTREFNDIGLLTELHYVQGIETLIKIGTRFSMVAALVVYRNFRWHLSSAIPP
The “transcriptional activation domain activity” value of the first is lower: 14700 for the first, 48200 for the second.

Going from “LRSVGRGGNSLVVIGFFVMNGVGIVLERVWKRICGRSVRGIWGWIWTFSWLAL” to “SHRKGIERKKRLREEERRREAKENGIVLEREKRADKGKERGRRDRGVDAPGVG”, the “transcriptional activation domain activity” value falls from 79900 to 26800.

Compared with “SSPSIQTASSVSTVLVVGSNDKTVKDVGEGLKTKLGVKGGGKGPRWSGKFIGV”, “MCGRLISLLVVLLLVKFRNSSLCGILDVFLFFFRRTPFVRMGFYFMIFLLLTI” is higher in “transcriptional activation domain activity” value: 19700 for the first, 65500 for the second.

Compared with “QILGCLYCVRWVHMCVYNVSGVQSLIPWLAMLPALARLKFSIWSHRGPPPDGD”, “MSENTAIENVTVTLEKTKLDAPVTNEAEVAHAASAAEGRRLYIGNLAYSTTEE” is lower in “transcriptional activation domain activity” value: 52100 for the first, 16900 for the second.

Going from “EPSRAGTPAPAPAAGEKKVGEAEGKVAEKAEGEGEGGKGAGEENNGKGKESVK” to “MYETNLFQWKLSIGFGFVLDYFIGLFLLDFFILDCIFYLLINSAICVFYSLSG”, the “transcriptional activation domain activity” value rises from 19100 to 58100.

First: GSVGDELVCVVKRARPIAPSSASNAIKVRRGDVRRAVIVRTKKAVRRPDGRLI
Second: KQYCVRPNSGRIEPGKDVEVQILLQAMKEDPPMDAKCRDKFLVQSVAVTADKE
The “transcriptional activation domain activity” value of the first is lower: 29900 for the first, 59200 for the second.

First: SKHATEAEKKKEEEKKSKSKEAPAKKEKKEKVKEEKPKEKVVAKIPEPAPSEP
Second: KLGFQVLVQVILVIWYKPDKIPSAVNVDKEIKKGEPVDNKARVLVECVLDVFQ
The “transcriptional activation domain activity” value of the first is lower: 20200 for the first, 51700 for the second.

Compared with “EAPAPVEEQPVQEPEPEAIPEPEPVPQETPQAYEEPPAPEPKPAPTPKAQPVQ”, “EGKKREEEEGRRKEGGTEEDREREPKRGDRRSRGKAGQSPEARERGTGGQGRR” is higher in “transcriptional activation domain activity” value: 23300 for the first, 37200 for the second.

First: MSFFLFFVSCLLLFFVFVLFLFFSFRSFLSSVPFPFRFCFLFLFALSLFFLLV
Second: PAPKRRGRPSKERVEEQQASDDETAQSSPKRRGRLPRQAASASASASAPVAAK
The “transcriptional activation domain activity” value of the first is lower: 41400 for the first, 44100 for the second.

Compared with “MVCFQITFLYSAFFPLFSFSFLLNIFPTISIFPHLLQILAAFFVLFYAFFSTM”, “YPFLLKLCFDIFLLPLHFFYFPFFFSLITHYIFFFTGTLSHLYICFILLCLFL” is lower in “transcriptional activation domain activity” value: 55100 for the first, 36400 for the second.

Compared with “KKEGEDGKGKRKVVVYVGNAKFVTQREEGRDAFSASLASFDAQESAHGRTTIY”, “TIIGLTSAVLLPVVVFIPYIPCWLFLYLVNLLFPLIFICFTGKVIQLTFLYYS” is lower in “transcriptional activation domain activity” value: 75600 for the first, 50100 for the second.

First: SDGEESDAGAKERKRKKKRRAKDSESESSDEEEKRKKTKRSKSKSKRRSPSPS
Second: KKLHLESEEDAEYIVAKAIRDGVIEAQVNHERGEMTSRETGDVYSTNEPQAQL
The “transcriptional activation domain activity” value of the first is higher: 25700 for the first, under 6570 for the second.

Going from “TLLASFVIDHLKEGVASDEIVLFAFADFQDTRSTNVVVLLRTLLAQLLDRCKP” to “GEGERGSDGRQKEGARERGRRRETRKQNQKRGRGGRGGRGRGEGGAKSETQET”, the “transcriptional activation domain activity” value falls from 65200 to 17200.
